Source: the supplement of paper PMC10567573

B1: MLL5 (parent)
chain: HDDGYMICCDKCSVWQHIDCMGID

Variants of: B1
Assay: protein stability index of a GFP-peptide fusion (GPS, HEK-293T) (PSI 1-6); higher = more stable
Details: c terminus: a fixed tail appended
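Note: lentivirally expressed fusions sorted by FACS into six bins by GFP to DsRed ratio, PSI derived from sequencing read proportions per bin multiplied by bin number.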

Protein stability index, by site and new letter:
I18: E 3.5 | F 2.35 | C 3.93 | Q 3.42 | P 2.94 | Y 2.6
M21: V 2.34 | D 3.5 | G 2.66 | R 2.85 | Q 2.91 | E 2.83 | F 2.17 | N 2.73
D24: T 1.94 | F 1.89 | Y 1.61 | K 2.13 | W 1.49 | Q 2.47 | I 2.21 | A 2.17 | G 2.19
I23: W 1.77 | P 2.5 | F 2.1 | N 2.52 | C 3.67 | H 3.15 | E 3.53 | A 2.56 | L 2.57
S13: V 1.85 | N 2.56 | E 2.55 | K 2.43 | G 3.48
D2: M 1.92 | G 2.05 | R 2.02 | S 2.16
I7: K 3.45 | A 3.2 | P 2.71 | M 2.29 | Q 3.51 | F 2.72 | R 2.45 | W 3.09
W15: F 3.11 | A 3.38 | I 2.43 | R 3.18 | S 3.69
M6: T 2.41 | R 3.35 | I 2.65 | F 2.22 | Y 2.14 | G 2.4
K11: C 3.26 | D 2.79 | F 1.05 | Q 2.94 | P 2.4 | H 2.1 | N 2.31
C12: Q 2.46 | F 1.76 | Y 2.91 | T 2.74 | I 1.92 | W 2.32 | L 1.7 | G 2.67 | S 3.01
D10: M 2.95 | F 2.44 | E 2.41
C8: F 1.56 | M 1.68 | I 1.9 | T 2.66 | R 2.51 | E 2.73 | N 2.43
D19: N 1.91 | G 2.84 | C 2.94 | T 2.33 | M 2 | I 2.25 | Q 2.62
Q16: L 2.75 | F 2.02 | V 2.82 | W 1.61 | G 2.71
Y5: S 2.84 | H 3.79 | G 3.53 | D 3.14
H1: W 2.63 | R 2.29 | T 2.19 | Y 3.85 | F 1.66 | P 1.86
C20: A 2.5 | R 1.97 | Q 2.02 | D 2.58 | N 2.81 | K 2.06 | V 1.89
D3: N 2.09 | S 1.69 | T 2.41 | I 1.63 | H 2.01 | F 1.53 | W 1.88 | Y 1.91
G22: L 1.81 | I 2.06 | E 2.4 | M 2.25 | F 2.04 | A 2.2 | V 1.59 | H 2.79
V14: I 2.57 | F 1.86 | T 2.93 | Y 2.12 | G 2.94 | E 3.73 | W 2.11 | R 2.77
G4: D 2.61 | W 2.56 | V 2.1 | C 2.53 | H 2.29 | N 2.05 | K 2.16 | M 1.74 | E 2.99
H17: N 2.32 | M 2.82 | P 2.18 | C 3.54 | T 1.64 | Y 1.63 | I 1.34 | R 1.95 | E 2.89 | K 1.52 | L 1.98
C9: A 2.56 | W 2.16 | N 2.77 | R 2.76 | L 2.12 | I 2.1 | M 1.99 | F 2.43
